Results published in patent publication US20210292396A1.

Columns and labels:
Assay in all cases: cell-based or functional assay
[1] = target: Env of HIV isolate 0013095-2.11 (clade C) (HIV)
[2] = target: Env of HIV isolate 001428-2.42 (clade C) (HIV)
[3] = target: Env of HIV isolate 0330.v4.c3 (clade A) (HIV)
[4] = target: Env of HIV isolate 25925-2.22 (clade C) (HIV)
[5] = target: Env of HIV isolate 263-8 (clade AG) (HIV)
[6] = target: Env of HIV isolate 286.36 (clade C) (HIV)
[7] = target: Env of HIV isolate 6405.v4.c34 (clade D) (HIV)
[8] = target: Env of HIV isolate 6631.v3.c10 (clade C) (HIV)
[9] = target: Env of HIV isolate 89.6.DG (clade B) (HIV)
[10] = target: Env of HIV isolate BJOX009000.02.4 (clade AE) (HIV)
[11] = target: Env of HIV isolate BX08.16 (clade B) (HIV)
[12] = target: Env of HIV isolate Bal.01 (clade B) (HIV)
[13] = target: Env of HIV isolate CAAN.A2 (clade B) (HIV)
[14] = target: Env of HIV isolate CNE15 (clade BC) (HIV)
[15] = target: Env of HIV isolate CNE3 (clade AE) (HIV)
[16] = target: Env of HIV isolate CNE30 (clade C in Table 7) (HIV)
[17] = target: Env of HIV isolate Ce1176.A3 (clade C) (HIV)
[18] = target: Env of HIV isolate DU422.01 (clade C) (HIV)
[19] = target: Env of HIV isolate HXB2.DG (clade B) (HIV)
[20] = target: Env of HIV isolate KNH1209.18 (clade A) (HIV)
[21] = target: Env of HIV isolate P0402.c2.11 (clade G) (HIV)
[22] = target: Env of HIV isolate R2184.c4 (clade AE) (HIV)
[23] = target: Env of HIV isolate RW020.2 (clade A) (HIV)
[24] = target: Env of HIV isolate T253-11 (clade AG) (HIV)
[25] = target: Env of HIV isolate T278-50 (clade AG) (HIV)
[26] = target: Env of HIV isolate T33-7 (clade AG) (HIV)
[27] = target: Env of HIV isolate TH976.17 (clade AE) (HIV)
[28] = target: Env of HIV isolate TV1.29 (clade C) (HIV)
[29] = target: Env of HIV isolate UG037.8 (clade A) (HIV)
[30] = target: Env of HIV isolate X1193.c1 (clade G) (HIV)
[31] = target: Env of HIV isolate ZM106.9 (clade C) (HIV)
[32] = target: Env of HIV isolate ZM109.4 (clade C) (HIV)
[33] = target: Env of HIV isolate ZM176.66 (clade C) (HIV)
[34] = target: Env of HIV isolate ZM233.6 (clade C) (HIV)
[35] = target: Envelope of SVA.MLV
[36] = target: Envelope protein of SIVmac251.30.SG3 (clade NA)
[37] = target: Envelope protein of SVA.MLV (clade NA)
[38] = target: HIV Env of isolate 0921.v2.c14 (HIV)
[39] = target: HIV Env of isolate 25711-2.4 (HIV)
[40] = target: HIV Env of isolate 288.38 (HIV)
[41] = target: HIV Env of isolate 6471.v1.c16 (HIV)
[42] = target: HIV Env of isolate BR025.9 (HIV)
[43] = target: HIV Env of isolate CAP210.E8 (HIV)
[44] = target: HIV Env of isolate CNE21 (HIV)
[45] = target: HIV Env of isolate Ce1176.A3 (HIV)
[46] = target: HIV Env of isolate P1981.C5.3 (HIV)
[47] = target: HIV Env of isolate X2131.C1.B5 (HIV)
[48] = target: HIV Env of isolate ZA012.29 (HIV)
[49] = target: HIV Env of isolate ZM176.66 (HIV)
[50] = target: HIV Env of isolate ZM249.1 (HIV)

B1: ePGT121.15 (ePGT121.15.H6 VH and ePGT121.15.L1 VL) (antibody, V domains shown)
VH: QMQLQESGPGLVKPGETLSLTCSVSGASISSSYWSWLRETPGKGLEWIGYTHHSGDTNYAPSLKSRVHLGLHPSKNQVSLSLTSVTAADTAVYYCARTLHGRRIYGVVAFNEFFTYFYWEVWGKGTQVTVSS
VL: SDISVAPGETVRISCGGESIGSRAVQWYQHRAGQAPKLIIYNNQDRPPGIPERFSGSPDIDFGTTATLTITNVEAGDEATYYCHIWDSRRPTNWVFGGGTTLTVL
IC50, pseudovirus neutralization [1]: 3010 ng/mL | IC50, pseudovirus neutralization [2]: 2 ng/mL | IC50, pseudovirus neutralization [3]: 6 ng/mL | IC50, pseudovirus neutralization [4]: 7 ng/mL | IC50, pseudovirus neutralization [5]: 14 ng/mL | IC50, pseudovirus neutralization [6]: 2 ng/mL | IC50, pseudovirus neutralization [7]: 3 ng/mL | IC50, pseudovirus neutralization [8]: 15 ng/mL | IC50, pseudovirus neutralization [9]: 2 ng/mL | IC50, pseudovirus neutralization [10]: 183 ng/mL | IC50, pseudovirus neutralization [11]: 4 ng/mL | IC50, pseudovirus neutralization [12]: 2 ng/mL | IC50, pseudovirus neutralization [13]: 5 ng/mL | IC50, pseudovirus neutralization [14]: 3520 ng/mL | IC50, pseudovirus neutralization [15]: > 50000 ng/mL | IC50, pseudovirus neutralization [16]: 8 ng/mL | IC50, pseudovirus neutralization [17]: 3 ng/mL | IC50, pseudovirus neutralization [18]: 10 ng/mL | IC50, pseudovirus neutralization [19]: 11 ng/mL | IC50, pseudovirus neutralization [20]: 3 ng/mL | IC50, pseudovirus neutralization [21]: 4 ng/mL | IC50, pseudovirus neutralization [22]: > 50000 ng/mL | IC50, pseudovirus neutralization [23]: 3 ng/mL | IC50, pseudovirus neutralization [24]: 9 ng/mL | IC50, pseudovirus neutralization [25]: 4870 ng/mL | IC50, pseudovirus neutralization [26]: > 50000 ng/mL | IC50, pseudovirus neutralization [27]: > 50000 ng/mL | IC50, pseudovirus neutralization [28]: 4 ng/mL | IC50, pseudovirus neutralization [29]: 4 ng/mL | IC50, pseudovirus neutralization [30]: 3 ng/mL | IC50, pseudovirus neutralization [31]: 2 ng/mL | IC50, pseudovirus neutralization [32]: 3370 ng/mL | IC50, pseudovirus neutralization [33]: 73 ng/mL | IC50, pseudovirus neutralization [34]: 16 ng/mL | IC80, pseudovirus neutralization [35]: > 50000 ng/mL | IC50, pseudovirus neutralization [36]: > 50000 ng/mL | IC50, pseudovirus neutralization [37]: > 50000 ng/mL | IC80, pseudovirus neutralization [38]: 5710 ng/mL | IC80, pseudovirus neutralization [39]: 8 ng/mL | IC80, pseudovirus neutralization [40]: 5 ng/mL | IC80, pseudovirus neutralization [41]: 6350 ng/mL | IC80, pseudovirus neutralization [42]: 6 ng/mL | IC80, pseudovirus neutralization [43]: 268 ng/mL | IC80, pseudovirus neutralization [44]: 4 ng/mL | IC80, pseudovirus neutralization [45]: 10 ng/mL | IC80, pseudovirus neutralization [46]: 5 ng/mL | IC80, pseudovirus neutralization [47]: 4 ng/mL | IC80, pseudovirus neutralization [48]: 12 ng/mL | IC80, pseudovirus neutralization [49]: 310 ng/mL | IC80, pseudovirus neutralization [50]: 1010 ng/mL
